Measurements from US6994968.

Target: human Slo1 (human), Q12791
Test: cell-based or functional assay

Sequence of human Slo1 (human), Q12791 (Q12791 whole entry): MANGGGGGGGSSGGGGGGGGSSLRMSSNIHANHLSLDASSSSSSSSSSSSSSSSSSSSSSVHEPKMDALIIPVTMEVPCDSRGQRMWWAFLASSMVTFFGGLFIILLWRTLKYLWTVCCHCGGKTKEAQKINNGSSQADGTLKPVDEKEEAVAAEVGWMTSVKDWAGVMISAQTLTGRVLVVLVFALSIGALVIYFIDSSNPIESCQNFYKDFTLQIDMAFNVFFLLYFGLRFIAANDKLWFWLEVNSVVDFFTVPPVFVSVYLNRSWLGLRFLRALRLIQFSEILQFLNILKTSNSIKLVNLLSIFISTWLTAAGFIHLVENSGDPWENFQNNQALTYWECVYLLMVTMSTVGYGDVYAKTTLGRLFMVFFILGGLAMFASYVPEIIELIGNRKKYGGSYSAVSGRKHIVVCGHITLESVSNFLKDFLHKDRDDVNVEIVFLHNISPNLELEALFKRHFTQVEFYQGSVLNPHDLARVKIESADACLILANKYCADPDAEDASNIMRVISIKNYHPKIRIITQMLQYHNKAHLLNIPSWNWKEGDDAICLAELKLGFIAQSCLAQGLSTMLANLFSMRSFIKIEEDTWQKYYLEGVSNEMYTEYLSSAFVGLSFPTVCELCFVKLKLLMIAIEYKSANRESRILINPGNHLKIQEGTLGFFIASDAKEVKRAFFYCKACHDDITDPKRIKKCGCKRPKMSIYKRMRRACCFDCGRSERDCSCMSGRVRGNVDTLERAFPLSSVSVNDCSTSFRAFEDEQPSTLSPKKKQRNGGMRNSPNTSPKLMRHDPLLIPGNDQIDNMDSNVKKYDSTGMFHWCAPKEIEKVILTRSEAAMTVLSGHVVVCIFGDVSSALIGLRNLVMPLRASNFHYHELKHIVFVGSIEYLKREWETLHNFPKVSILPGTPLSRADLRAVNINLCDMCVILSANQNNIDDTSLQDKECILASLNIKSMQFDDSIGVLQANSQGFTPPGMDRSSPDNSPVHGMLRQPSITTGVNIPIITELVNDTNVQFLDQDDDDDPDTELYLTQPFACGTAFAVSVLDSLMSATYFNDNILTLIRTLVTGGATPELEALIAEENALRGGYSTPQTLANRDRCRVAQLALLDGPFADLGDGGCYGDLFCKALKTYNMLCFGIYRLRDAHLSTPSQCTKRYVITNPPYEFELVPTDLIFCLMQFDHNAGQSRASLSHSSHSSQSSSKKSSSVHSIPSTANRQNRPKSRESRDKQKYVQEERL

B1: human BK beta 3, Q86W47 1-210 (protein)
chain: MAKLRVAYEYTEAEDKSIRLGLFLIISGVVSLFIFGFCWLSPALQDLQATEANCTVLSVQQIGEVFECTFTCGADCRGTSQYPCVQVYVNNSESNSRALLHSDEHQLLTNPKCSYIPPCKRENQKNLESVMNWQQYWKDEIGSQPFTCYFNQHQRPDDVLLHRTHDEIVLLHCFLWPLVTFVVGVLIVVLTICAKSLAVKAEAMKKRKFS
- leftward shift in the Slo-1 activation curve (V1/2act) in the presence of 50 µM free Ca2+: 15 mV
